Measured values taken from patent US20140087995A1 (published 2014).
Numbered stars: 1 amine (or outer) side, 2 acyl side, 3 side chain; on linkers, the order of the positions; unused ones are H or OH. Bridge positions count the residues as written; N and C are the ends. Side chains are listed from the residue outwards. Ends that are not written are not given here. * marks the point of attachment. C20 diacid = O=C(O)CCCCCCCCCCCCCCCCCCC(=O)*; γGlu = O=C(O)[C@H](CCC(=O)[*:2])N[*:1]; AEEA = NCCOCCOCC(=O)O

T1: human calcitonin receptor (human, UniProt P30988 25-474)
T1 sequence (looked up): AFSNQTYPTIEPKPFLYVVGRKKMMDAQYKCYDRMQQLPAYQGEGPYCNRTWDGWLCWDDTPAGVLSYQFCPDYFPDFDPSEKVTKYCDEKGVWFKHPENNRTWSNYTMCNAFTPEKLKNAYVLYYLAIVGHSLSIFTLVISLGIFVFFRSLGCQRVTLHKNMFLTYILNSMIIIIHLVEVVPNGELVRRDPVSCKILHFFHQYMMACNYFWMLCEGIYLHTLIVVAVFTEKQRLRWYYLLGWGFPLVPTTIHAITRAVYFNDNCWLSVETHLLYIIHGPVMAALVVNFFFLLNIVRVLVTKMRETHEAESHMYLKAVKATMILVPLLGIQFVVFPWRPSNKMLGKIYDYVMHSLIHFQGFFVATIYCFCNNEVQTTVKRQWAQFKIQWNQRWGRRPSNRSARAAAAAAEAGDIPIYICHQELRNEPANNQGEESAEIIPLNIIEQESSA


target: T1, human calcitonin receptor; test: cell-based or functional assay

Binder	hCTR funct. EC50 [nM]
K([AEEA-γGlu-C20 diacid])CNTATCATQRLANFLRHSSPNFGAIPSSTNVGPHTY-NH2 (disulfide 2-7; N-terminus assumed; SMILES CC[C@H](C)[C@H](NC(=O)[C@H](C)NC(=O)CNC(=O)[C@H](Cc1ccccc1)NC(=O)[C@H](CC(N)=O)NC(=O)[C@@H]1CCCN1C(=O)[C@H](CO)NC(=O)[C@H](CO)NC(=O)[C@H](Cc1c[nH]cn1)NC(=O)[C@H](CCCNC(=N)N)NC(=O)[C@H](CC(C)C)NC(=O)[C@H](Cc1ccccc1)NC(=O)[C@H](CC(N)=O)NC(=O)[C@H](C)NC(=O)[C@H](CC(C)C)NC(=O)[C@H](CCCNC(=N)N)NC(=O)[C@H](CCC(N)=O)NC(=O)[C@@H](NC(=O)[C@H](C)NC(=O)[C@@H]1CSSC[C@H](NC(=O)[C@@H](N)CCCCNC(=O)COCCOCCNC(=O)CC[C@H](NC(=O)CCCCCCCCCCCCCCCCCCC(=O)O)C(=O)O)C(=O)N[C@@H](CC(N)=O)C(=O)N[C@@H]([C@@H](C)O)C(=O)N[C@@H](C)C(=O)N[C@@H]([C@@H](C)O)C(=O)N1)[C@@H](C)O)C(=O)N1CCC[C@H]1C(=O)N[C@@H](CO)C(=O)N[C@@H](CO)C(=O)N[C@H](C(=O)N[C@@H](CC(N)=O)C(=O)N[C@H](C(=O)NCC(=O)N1CCC[C@H]1C(=O)N[C@@H](Cc1c[nH]cn1)C(=O)N[C@H](C(=O)N[C@@H](Cc1ccc(O)cc1)C(N)=O)[C@@H](C)O)C(C)C)[C@@H](C)O, analogue of human amylin; also called compound 58)	1.03
K([AEEA-γGlu-C20 diacid])CNTATCATQRLAHFLRHSSPNFGAIPSSTNVGPNTY-NH2 (disulfide 2-7; N-terminus assumed; SMILES CC[C@H](C)[C@H](NC(=O)[C@H](C)NC(=O)CNC(=O)[C@H](Cc1ccccc1)NC(=O)[C@H](CC(N)=O)NC(=O)[C@@H]1CCCN1C(=O)[C@H](CO)NC(=O)[C@H](CO)NC(=O)[C@H](Cc1c[nH]cn1)NC(=O)[C@H](CCCNC(=N)N)NC(=O)[C@H](CC(C)C)NC(=O)[C@H](Cc1ccccc1)NC(=O)[C@H](Cc1c[nH]cn1)NC(=O)[C@H](C)NC(=O)[C@H](CC(C)C)NC(=O)[C@H](CCCNC(=N)N)NC(=O)[C@H](CCC(N)=O)NC(=O)[C@@H](NC(=O)[C@H](C)NC(=O)[C@@H]1CSSC[C@H](NC(=O)[C@@H](N)CCCCNC(=O)COCCOCCNC(=O)CC[C@H](NC(=O)CCCCCCCCCCCCCCCCCCC(=O)O)C(=O)O)C(=O)N[C@@H](CC(N)=O)C(=O)N[C@@H]([C@@H](C)O)C(=O)N[C@@H](C)C(=O)N[C@@H]([C@@H](C)O)C(=O)N1)[C@@H](C)O)C(=O)N1CCC[C@H]1C(=O)N[C@@H](CO)C(=O)N[C@@H](CO)C(=O)N[C@H](C(=O)N[C@@H](CC(N)=O)C(=O)N[C@H](C(=O)NCC(=O)N1CCC[C@H]1C(=O)N[C@@H](CC(N)=O)C(=O)N[C@H](C(=O)N[C@@H](Cc1ccc(O)cc1)C(N)=O)[C@@H](C)O)C(C)C)[C@@H](C)O, analogue of human amylin; also called compound 68)	0.932
K([AEEA-γGlu-C20 diacid])CNTATCATQRLAKFLRHSSPNFGAIPSSTPVGSNTY-NH2 (disulfide 2-7; N-terminus assumed; SMILES CC[C@H](C)[C@H](NC(=O)[C@H](C)NC(=O)CNC(=O)[C@H](Cc1ccccc1)NC(=O)[C@H](CC(N)=O)NC(=O)[C@@H]1CCCN1C(=O)[C@H](CO)NC(=O)[C@H](CO)NC(=O)[C@H](Cc1c[nH]cn1)NC(=O)[C@H](CCCNC(=N)N)NC(=O)[C@H](CC(C)C)NC(=O)[C@H](Cc1ccccc1)NC(=O)[C@H](CCCCN)NC(=O)[C@H](C)NC(=O)[C@H](CC(C)C)NC(=O)[C@H](CCCNC(=N)N)NC(=O)[C@H](CCC(N)=O)NC(=O)[C@@H](NC(=O)[C@H](C)NC(=O)[C@@H]1CSSC[C@H](NC(=O)[C@@H](N)CCCCNC(=O)COCCOCCNC(=O)CC[C@H](NC(=O)CCCCCCCCCCCCCCCCCCC(=O)O)C(=O)O)C(=O)N[C@@H](CC(N)=O)C(=O)N[C@@H]([C@@H](C)O)C(=O)N[C@@H](C)C(=O)N[C@@H]([C@@H](C)O)C(=O)N1)[C@@H](C)O)C(=O)N1CCC[C@H]1C(=O)N[C@@H](CO)C(=O)N[C@@H](CO)C(=O)N[C@H](C(=O)N1CCC[C@H]1C(=O)N[C@H](C(=O)NCC(=O)N[C@@H](CO)C(=O)N[C@@H](CC(N)=O)C(=O)N[C@H](C(=O)N[C@@H](Cc1ccc(O)cc1)C(N)=O)[C@@H](C)O)C(C)C)[C@@H](C)O, analogue of human amylin; also called compound 74)	37.5
K([AEEA-γGlu-C20 diacid])CNTATCATQRLAHFLRHSSPNFGAIPSSTNVGSNTY-NH2 (disulfide 2-7; N-terminus assumed; SMILES CC[C@H](C)[C@H](NC(=O)[C@H](C)NC(=O)CNC(=O)[C@H](Cc1ccccc1)NC(=O)[C@H](CC(N)=O)NC(=O)[C@@H]1CCCN1C(=O)[C@H](CO)NC(=O)[C@H](CO)NC(=O)[C@H](Cc1c[nH]cn1)NC(=O)[C@H](CCCNC(=N)N)NC(=O)[C@H](CC(C)C)NC(=O)[C@H](Cc1ccccc1)NC(=O)[C@H](Cc1c[nH]cn1)NC(=O)[C@H](C)NC(=O)[C@H](CC(C)C)NC(=O)[C@H](CCCNC(=N)N)NC(=O)[C@H](CCC(N)=O)NC(=O)[C@@H](NC(=O)[C@H](C)NC(=O)[C@@H]1CSSC[C@H](NC(=O)[C@@H](N)CCCCNC(=O)COCCOCCNC(=O)CC[C@H](NC(=O)CCCCCCCCCCCCCCCCCCC(=O)O)C(=O)O)C(=O)N[C@@H](CC(N)=O)C(=O)N[C@@H]([C@@H](C)O)C(=O)N[C@@H](C)C(=O)N[C@@H]([C@@H](C)O)C(=O)N1)[C@@H](C)O)C(=O)N1CCC[C@H]1C(=O)N[C@@H](CO)C(=O)N[C@@H](CO)C(=O)N[C@H](C(=O)N[C@@H](CC(N)=O)C(=O)N[C@H](C(=O)NCC(=O)N[C@@H](CO)C(=O)N[C@@H](CC(N)=O)C(=O)N[C@H](C(=O)N[C@@H](Cc1ccc(O)cc1)C(N)=O)[C@@H](C)O)C(C)C)[C@@H](C)O, analogue of human amylin; also called compound 69)	1.25
K([AEEA-γGlu-C20 diacid])CNTATCATQRLANFLRHSSPNFGAIPSSTNVGPNTY-NH2 (disulfide 2-7; N-terminus assumed; SMILES CC[C@H](C)[C@H](NC(=O)[C@H](C)NC(=O)CNC(=O)[C@H](Cc1ccccc1)NC(=O)[C@H](CC(N)=O)NC(=O)[C@@H]1CCCN1C(=O)[C@H](CO)NC(=O)[C@H](CO)NC(=O)[C@H](Cc1c[nH]cn1)NC(=O)[C@H](CCCNC(=N)N)NC(=O)[C@H](CC(C)C)NC(=O)[C@H](Cc1ccccc1)NC(=O)[C@H](CC(N)=O)NC(=O)[C@H](C)NC(=O)[C@H](CC(C)C)NC(=O)[C@H](CCCNC(=N)N)NC(=O)[C@H](CCC(N)=O)NC(=O)[C@@H](NC(=O)[C@H](C)NC(=O)[C@@H]1CSSC[C@H](NC(=O)[C@@H](N)CCCCNC(=O)COCCOCCNC(=O)CC[C@H](NC(=O)CCCCCCCCCCCCCCCCCCC(=O)O)C(=O)O)C(=O)N[C@@H](CC(N)=O)C(=O)N[C@@H]([C@@H](C)O)C(=O)N[C@@H](C)C(=O)N[C@@H]([C@@H](C)O)C(=O)N1)[C@@H](C)O)C(=O)N1CCC[C@H]1C(=O)N[C@@H](CO)C(=O)N[C@@H](CO)C(=O)N[C@H](C(=O)N[C@@H](CC(N)=O)C(=O)N[C@H](C(=O)NCC(=O)N1CCC[C@H]1C(=O)N[C@@H](CC(N)=O)C(=O)N[C@H](C(=O)N[C@@H](Cc1ccc(O)cc1)C(N)=O)[C@@H](C)O)C(C)C)[C@@H](C)O, analogue of human amylin; also called compound 50)	0.662
K([AEEA-γGlu-C20 diacid])CNTATCATQRLAHFLRHSSPNFGAIPSSTPVGSNTY-NH2 (disulfide 2-7; N-terminus assumed; SMILES CC[C@H](C)[C@H](NC(=O)[C@H](C)NC(=O)CNC(=O)[C@H](Cc1ccccc1)NC(=O)[C@H](CC(N)=O)NC(=O)[C@@H]1CCCN1C(=O)[C@H](CO)NC(=O)[C@H](CO)NC(=O)[C@H](Cc1c[nH]cn1)NC(=O)[C@H](CCCNC(=N)N)NC(=O)[C@H](CC(C)C)NC(=O)[C@H](Cc1ccccc1)NC(=O)[C@H](Cc1c[nH]cn1)NC(=O)[C@H](C)NC(=O)[C@H](CC(C)C)NC(=O)[C@H](CCCNC(=N)N)NC(=O)[C@H](CCC(N)=O)NC(=O)[C@@H](NC(=O)[C@H](C)NC(=O)[C@@H]1CSSC[C@H](NC(=O)[C@@H](N)CCCCNC(=O)COCCOCCNC(=O)CC[C@H](NC(=O)CCCCCCCCCCCCCCCCCCC(=O)O)C(=O)O)C(=O)N[C@@H](CC(N)=O)C(=O)N[C@@H]([C@@H](C)O)C(=O)N[C@@H](C)C(=O)N[C@@H]([C@@H](C)O)C(=O)N1)[C@@H](C)O)C(=O)N1CCC[C@H]1C(=O)N[C@@H](CO)C(=O)N[C@@H](CO)C(=O)N[C@H](C(=O)N1CCC[C@H]1C(=O)N[C@H](C(=O)NCC(=O)N[C@@H](CO)C(=O)N[C@@H](CC(N)=O)C(=O)N[C@H](C(=O)N[C@@H](Cc1ccc(O)cc1)C(N)=O)[C@@H](C)O)C(C)C)[C@@H](C)O, analogue of human amylin; also called compound 61)	0.554
